Assay results taken from the nanobody polyreactivity screen of Harvey et al. (2022).

Experiment: yeast display, Sf9 membrane polyspecificity reagent, FACS + sequencing; frameworks hold sequencing errors
How it was run: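 Nanobodies came from a synthetic yeast display library in Saccharomyces cerevisiae BJ5465, induced with galactose for 36–48 hours and stained for 1 hour at 4 °C with 10% biotinylated, detergent-solubilized Sf9 membrane reagent. Cells were enriched on streptavidin microbeads and then FACS-sorted, with low and high (top ~1%) gates set on anti-HA fluorescence for expression and streptavidin fluorescence for reagent binding. Each polyreactivity label reflects the gate a clone came from. Genes were amplified by colony PCR, sequenced by MiSeq 2 × 250 and filtered by CDR length.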

Sequence: QVQLQESGGGLVQEGGSLRLSCAASGTISQEDWMGWYRQAPGKEREFVAAIGLGSNTNYADSLKGRFTISRDNAKNTVYLQMNSLKPEDTAVYYCAVSVWQYSDHVYRGQGTQVTVSS
- polyreactivity (PSR sort gate): low polyreactivity

Sequence: QVQLVESGGGLVQAGGSLRLSCAASGIIFYGYAMGWYRQAPGKERELVATISTGGRTNYADSVKGRFTISRDNAKNTVYLQMNSLKPEDTAVYYCAARSFWTYRSGGPSDYYYWGQGTQVTVSS
- polyreactivity (PSR sort gate): high polyreactivity

Sequence: QVQLVESGGGLVQAGGSLRLSCAASGRIFYSNVMGWYRQAPGKERELVAAISGRTGGTYYADSVKGRFTISRDNAKNTVYLQMNSLKPEDTAVYYCNAYSLRHHHSDYWGQGTQVTVSS
- polyreactivity (PSR sort gate): low polyreactivity

Sequence: QVQLVESGGGLVQAGGSLRLSCAASGFIFASYAMGWYRQAPGKERELVAAISSSGGRTYYADSVKGRFTISRDNAKNTVYLQMNSLKPEDTAVYYCAADWRVTYDYWGQGTQVTVSS
- polyreactivity (PSR sort gate): high polyreactivity

Sequence: QDQLVESGGGLVQAGGSLRLSCAASGTIFRGYTMGWYRQAPGKERELVAAISSSGGRTHYADSVKGRFTISRDNAKNTVYLQMNSLKPEDSAVYYCAADYYRTPKSGSSGLDYWGQGTQVTLSS
- polyreactivity (PSR sort gate): low polyreactivity

Sequence: QVQLVESGGGLVQAGGSLRLSCAASGSIFYRNTMGWYRQATGKERELVARISNGGSTNYADSVKGRFTISRDNAKNTVYLQMNSLKPEDTAVYYCNARRGSATHSVTARRGYWGQGTQVTVSS
- polyreactivity (PSR sort gate): high polyreactivity

Sequence: QVQLVESGGGLVQSGGSLRLSCAASGGTFVPYAMGWDIQAPGKERELVARISKRGGTTYYADSVKGRFTISRDTAKITVYLQMNSLKPEDTAVSSCAAVLPARGYYWGQGTQVTVSS
- polyreactivity (PSR sort gate): high polyreactivity

Sequence: QVQLVESGGVLVQGGGSLRLSCAASGSIFPFYALGWYRQAPGKERELVATNSWSGGRTYYADSVKGRFTKSRDNAKTNVYLQINILIPEDTAVYYCAAGSYHYPNAYYYWGQGTQLTVSS
- polyreactivity (PSR sort gate): high polyreactivity

Sequence: QVQLVESGGGLVQAGGSLRLSCAASGRTFASYAMGWYRQAPGKERDFVASISRRGGSTNYADSVKGRFTISRDNAKNTVYLQMNSLIPEDNAVYYCAKRFTLPLSEYDYWGQGTQVTVSS
- polyreactivity (PSR sort gate): high polyreactivity

Sequence: QVQLVESGGGLVQAGGSLRLRCAASGRIFGVYVMGWYRQAPGKESEFVAAISWSGSHTYYADSVKGRFTISRYNAKNTVYLQMNSLKPEDTAVYYCNADSYPDYTGPGLDWYDFWGQGTQVTVSS
- polyreactivity (PSR sort gate): low polyreactivity

Sequence: QDQLVESGGGLVQAGGSLRLSCAASRSIFYGYATRSYRQEPGKESELVAAISYSGDRTYYADSVKGRFTISRDNAKNTVYLQMNSLKPEDTAVYYCAAESRGVGAYYYRGQGTQVTVSS
- polyreactivity (PSR sort gate): high polyreactivity

Sequence: QVQLVESGGGLVQAGGSIRLSCAASGRIFNHNSMGWYRQAPGKERELVAAITKSGGSTYYADSVKGRFTISRDNAKNTVYFQINSLITEDTAVYYCATRLWKIPGAMYYWGQGTQVTVSS
- polyreactivity (PSR sort gate): high polyreactivity

Sequence: QFQLVEYGGGLFQAGGSLRLSCDASGSIFPYNDLGWYRQAPGKERELVARITNGGSTNYADSVKGRFTISRDNAKNTFYLQMNSLKPEDTAGYYCNKDGTQEFAPDGHEYWGQGTQVTVSS
- polyreactivity (PSR sort gate): low polyreactivity

Sequence: QVQLVESGGGLVQAGGSLRLSCAASGLNFYGYFMGWYRQAPGKERELVAAISATGGSTYYADSVKGRFTISRDTAKNTVYLQMNSLKPEETAVYYCAATYYSYTWFSQYYYWGQGTQVTVSS
- polyreactivity (PSR sort gate): high polyreactivity

Sequence: QVQLVESGGGLVQAGGSLRLTCAASGRTFAGNAMGWYRQAPGKERELVAAIRRTGGRTYYADSVKGRFTISRDNAKNSVYLQRNSLKPEDTAVYYCYAVNKPYTREYGYDYWGKGTQVTVSS
- polyreactivity (PSR sort gate): high polyreactivity

Sequence: QVQLVESGGGLVQAGGSLRLSCAASGFTFFRNAMGWYRQAPGKEMELVAAISGSGGSTYYADSVKGRFTISRDNAKNTVYLQINSLKPEDTAVYYCATYSYPAKVPEAYNYWGQGSQVTVSS
- polyreactivity (PSR sort gate): low polyreactivity

Sequence: QVQLVESGGGLVQAGGRHRLTCAASGRILGYYAMGWYRQAPGKQRELVAAITRGGTTNYADSVKGRFTISRDNAMNTVYLQKNSQKPEDSAGYYCAADLARYGKRYDFWGQGTQVTLSS
- polyreactivity (PSR sort gate): low polyreactivity

Sequence: QVQLVESGGGLVQAGGSLRLSCAASGSIFARYVMGWYRQAPGKERELVAAISRGGRTKYADSVKGRFTISRDNAKNTVYLQMNSLKPEDTAVYYCAAEPFNGRTDLDYWGQGTQVTVSS
- polyreactivity (PSR sort gate): high polyreactivity

Sequence: QVQLVESVGGLVQAGGSLRLSCAASGFISYYYAMGWYRQAPGKEREFVAAITSSGGSTRYADSVKGRFTISRDNAKNPVYLQMNSLKPEDTAVYYCAARKARPPFPHPFDYYWGQGTQVTVSS
- polyreactivity (PSR sort gate): low polyreactivity

Sequence: QVQLVESGGGLVQAGGSLRLSCAASRSIFYSYALGWSRQAPGKEREWVADITITGSTYYADSVKGRFTISRDNAKNTVYLQMKSLKSEDTAVYFCNAVLAPGGYAYWGQGTQVTVSS
- polyreactivity (PSR sort gate): low polyreactivity

Sequence: QVQLVESGGGLVQAGGSLRLSCAASGNIFHDNAMGWYRQAPGKERELVAAISDSGGSTYYADSVKGRFTISRDTAKNTVYLQMNSLKPEDTAVYYCDSGRTYYAPYQWWYDYWGQGTQVTVSS
- polyreactivity (PSR sort gate): high polyreactivity

Sequence: QVQLVESGGGFVQAGGSLRLSCAASGFTFGYYTMGWYRQAPGKERELVAAITYRGGRTYYADSVKGRFTISRDNAKNTVYLQLNSLKPEATAVYYGAARLLGKTGRTDSGAEGDYWGQGTQVTVSS
- polyreactivity (PSR sort gate): high polyreactivity

Sequence: QVQLVESGGGLVQAGGSLRLSCAASASIYPYAMGWYRQAPGKERELVAAITRSGASTYYADSVKGRFTISRDNAKNTVYLQMNSMKPEDTAVYYCAAYALRGVRYPYRVDFYYWGQGTQVTVSS
- polyreactivity (PSR sort gate): high polyreactivity

Sequence: QVQLVESGGGLVQAGGSLRLSCAASGSIFRVYAMGWYRPAPGKERELVASISRRGGSTYYADSVKGRFTISRDNEKNTVYLHMNILKPEDTAVYYCAAEFVIGVHCYDYWGQVTQVTVSS
- polyreactivity (PSR sort gate): high polyreactivity

Sequence: QVQLVESRGGLVQAGGSLRLSFAASGSIFTPYTMGWDRPAPGKERELVAAITGSAGSTYYADSVKGRFTISRDNAKNTVYLQMNSLKPEDTAVYYCAAAVWGVYQWYYYWGQGTQVTVSS
- polyreactivity (PSR sort gate): high polyreactivity

Sequence: QVHLVESGGGLVQAGGSLRLSCAASGFTFLVYAMRWYRKAPGKEREFVAAMNWSGDRTYYADSVKGLFTISREYAKNTVYLQMNSVKTEDTAVYYCAAVDYVYPQAYGYWGQGTQVTVSS
- polyreactivity (PSR sort gate): low polyreactivity

Sequence: QVQLVESGGGLVQAGGSLRLSCAASGSTFVSNAMGWYRQAPGKERELVAAISTSGGSTYYADSVKGRFTISRDNAKKTVYLQMNSLKTEDTAVYFCAAVSPRRYRYDYWGQGTQVTVSS
- polyreactivity (PSR sort gate): low polyreactivity

Sequence: QVQLVESGGGLVQAGATIRLSCAASVRTFESNALGWYRQEPGKERELVAGITSGGITNYADSVKGRFTISRDNAKNNVYLQMNSLKPEDTAVYYCEFYYWGQGTQVTVSS
- polyreactivity (PSR sort gate): low polyreactivity

Sequence: QVQLVESGGGLVQAGGSLRLSCAASGSTIFSYAMGWYRQAPGKERELVAAISWIDDGTYYADSVKGRFTISRDNAKNTVYLQMNSLKPEDTAVYYCAADIGAYRTWDYEYWGQGTQVTVSS
- polyreactivity (PSR sort gate): low polyreactivity

Sequence: QVQLVESGGGLVQAGGSLRLSCAASGFIFVRYAMGWYRQAPGKERELVAAISTSGSSTYYADSVKGRFTISRDNAKNTVFLQMNSLKPEDTAVYYCAAKDRGQSYGYWGQGTQVTVSS
- polyreactivity (PSR sort gate): high polyreactivity

Sequence: QVHLGETGGALVQAGGRLRLSCAASGITLGAYAMGWYRQAPGKERELVARIRIGGSTYYADSVKGRFTISRDYAKNTVFLQMNSLKPEDTAVYYCNALYRYLYRSGDYWGQGTQVTVSS
- polyreactivity (PSR sort gate): low polyreactivity

Sequence: QVQLVESGGGLVQAGGSLRLSCAASGSTFADNAMGWDRQAPGKERELVAAISSDGSTNYADSVKGRFTISRDNAKNTVYLQMNSLKPEDTAVYYCNADGVYLGYPVVPPEGDYWGQGTQVTVSS
- polyreactivity (PSR sort gate): low polyreactivity

Sequence: QVQLVESGGGLVQAGGSLRLSCAASGITFGYYAMGWSRQAPGKERELVAAIRSSGGSTYYADSVKGRFTISRDNAKNNVYLQMNSLKPEDTAVYYCNARYRKSSRPGYEPYERYYWGQGTQVTVSS
- polyreactivity (PSR sort gate): high polyreactivity

Sequence: QVQLVESGGGLVQAGGSLRLSCAASGSTFNDYAMGWYRQAPGKERELVAGITWRGTSTYYADSVKGRFTISRDNAKNTVYLQRNSLKPEDTAVYYCAADVYYLLWLWMDYWGQGTQVTVSS
- polyreactivity (PSR sort gate): low polyreactivity

Sequence: QVQLVESGGGLVQAGGSLRLSCAASGRTFQLNAMGWYRQAPGKEREVVAAISTRGGSTYYADSVKGRFTISRDNAKNTVYLQMHRLKPEDTAVYYCAKDPSFTRGYKEGGGYDYWGQGTQVTVSS
- polyreactivity (PSR sort gate): high polyreactivity

Sequence: QVQLVESGGGLVQAGGSLRLSCAASGSTFARYAMGWYRQAPGKERELVAAISITGSTYYADSVKGRFTISRDNAKNTVYLQMNSLNPEDTAVYYCNVKSKYRYGYWGQGTQVTVSS
- polyreactivity (PSR sort gate): high polyreactivity

Sequence: QVQLVESGGGLVQAGGSLRLSCAASGRISTRYTMGWYRQAPRKERELVAAISGNAGRTYYADSVKGRFTISRDNAKNTVYLEMNSLKPADTAVYYCARESGYRAYEIQFYYWGQGTQVTVSS
- polyreactivity (PSR sort gate): high polyreactivity

Sequence: QVQLVESGGGLVQAGGSLRLSCAASGRIFARYAMGWYRQAPGKERELVAAISFRGGSTYYADSVKGRFTISRDNAQNTVYLPMNSLKPEDTAVYYCNARYGRGGYDYWGQGTQVSVSS
- polyreactivity (PSR sort gate): high polyreactivity

Sequence: QVQLVESGGGLVQAGGSLRLSCAASVSIFYHYAMGWYRQAPGKESELVAAIDRTGGSTYYADSVKGRFTISRDNAKNTVYLQMNSLKPEDTAVYYCDADWDYADYYGFQYDYWGQGTQVTVSS
- polyreactivity (PSR sort gate): low polyreactivity

Sequence: QVQLVESGGGLVQAGGILRLSCAASGSTFGRYAIGWYRPAPGTERELVAAISRRGGSTYYADSVKWRFTISRDNAKNNVYLQMYSLKPVDTAVYYCAADDVRTSGCHFDYWGDGTQVTVSS
- polyreactivity (PSR sort gate): high polyreactivity

Sequence: QFQLVESGGGLVQAGGSLRLSCAASGSTFPYYAMGWYRQAPGNERELVASIRKRGGGTYYADSVKGRFTISRDNAKNTVYFQMNILKPEDTAVYYCAVRVYQFRYTGYDYWGQGTQVTVSS
- polyreactivity (PSR sort gate): high polyreactivity

Sequence: QVQLVESGGGLVQAGGSLRLSCAASGCIGRRYAMGWYRQAPGKERELVAAITSSGGGTYYADSVKGRFTISRDNAKNTVYFQINILTPEDTAVYYCAARVYGSHFYYRTRPYDYWGQGTQVTVSS
- polyreactivity (PSR sort gate): high polyreactivity

Sequence: QVQLVESGGGLVQAGGSLRLSCAASGIILYRNVLGWYRQAPGKERELVASINRGSDSTYYADSVKGRFTISRDNEKNTVYLHMNSLKPEDTAVYYCAAVYVYGVEMDYWGQGTQVTVSS
- polyreactivity (PSR sort gate): low polyreactivity
